Each block holds one substance with its values, some of them ahead of it. Square brackets hold non-standard residues; d marks the D form. Ends that are not written are not given here. Tyr(3-NO2) = N[C@@H](Cc1ccc(O)c([N+](=O)[O-])c1)C(=O)O; 2Abz = Nc1ccccc1C(=O)O
Columns and labels:
Assay type in all cases: biochemical
[1] = target: uPA (Homo sapiens, UniProt P00749); assay: FRET peptide cleavage efficiency with uPA
[2] = target: Kallikrein-3 (Homo sapiens, UniProt P07288); assay: FRET peptide cleavage efficiency with Kallikrein-3; conditions: peptide 200 uM, Kallikrein-3 2 μg/ml, 37° C., pH 8
[3] = target: T1, matriptase (Homo sapiens, UniProt Q9Y5Y6); assay: FRET peptide cleavage efficiency with matriptase
T1 construct: purchased R&D Systems 3946-SEB
T1 sequence (Q9Y5Y6 615-855 limits assumed): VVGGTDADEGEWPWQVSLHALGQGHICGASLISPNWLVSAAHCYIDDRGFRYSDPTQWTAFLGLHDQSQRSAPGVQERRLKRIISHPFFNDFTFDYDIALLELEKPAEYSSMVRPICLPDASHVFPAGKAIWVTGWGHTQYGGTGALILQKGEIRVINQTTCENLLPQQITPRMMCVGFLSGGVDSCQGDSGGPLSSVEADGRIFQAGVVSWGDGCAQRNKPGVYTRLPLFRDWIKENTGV

[4] = target: T2, MMP-2 (Homo sapiens, UniProt P08253); assay: FRET peptide cleavage efficiency with MMP-2
T2 construct: purchased SIGMA PF023
T2 sequence (P08253 110-660): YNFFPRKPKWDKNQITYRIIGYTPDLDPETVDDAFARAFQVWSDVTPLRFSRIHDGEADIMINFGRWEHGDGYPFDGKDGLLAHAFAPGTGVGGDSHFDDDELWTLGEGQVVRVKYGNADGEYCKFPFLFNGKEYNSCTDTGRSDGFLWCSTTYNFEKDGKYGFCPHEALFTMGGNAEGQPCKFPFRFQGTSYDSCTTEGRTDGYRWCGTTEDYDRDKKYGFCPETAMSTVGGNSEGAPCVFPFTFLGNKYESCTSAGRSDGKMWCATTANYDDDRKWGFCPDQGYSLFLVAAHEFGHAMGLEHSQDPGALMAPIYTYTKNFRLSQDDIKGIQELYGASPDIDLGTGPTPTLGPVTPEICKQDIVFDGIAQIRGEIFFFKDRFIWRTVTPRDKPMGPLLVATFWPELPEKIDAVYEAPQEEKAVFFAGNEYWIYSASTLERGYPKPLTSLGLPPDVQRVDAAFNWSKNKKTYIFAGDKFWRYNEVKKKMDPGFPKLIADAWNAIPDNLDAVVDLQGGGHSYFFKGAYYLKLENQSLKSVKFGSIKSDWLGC

[5] = target: T3, MMP-9 (Homo sapiens, UniProt P14780); assay: FRET peptide cleavage efficiency with MMP-9 (standard pH 7.5; also pH 6.5)
T3 construct: purchased SIGMA PF024

[6] = target: T4, MMP-7 (Homo sapiens, UniProt P09237); assay: FRET peptide cleavage efficiency with MMP-7 (standard pH 7.5; also pH 6.5)
T4 construct: purchased SIGMA CC1059
T4 sequence (P09237 95-267): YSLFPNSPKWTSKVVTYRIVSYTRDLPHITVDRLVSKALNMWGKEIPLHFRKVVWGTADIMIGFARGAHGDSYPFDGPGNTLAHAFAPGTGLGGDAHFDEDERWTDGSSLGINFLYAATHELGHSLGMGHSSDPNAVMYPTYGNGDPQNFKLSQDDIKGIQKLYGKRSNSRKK

[7] = 200 uM linker, 1 ug/ml protease, 37° C., buffer A pH 8.5
[8] = t = 60 min, 200 uM linker, 1 ug/ml protease, 37° C., buffer A pH 8.5
[9] = t = 120 min, 200 uM linker, 1 ug/ml protease, 37° C., buffer A pH 8.5
[10] = t = 15 min, 200 uM linker, 1 ug/ml protease, 37° C., buffer B pH 9.0
[11] = t = 60 min, 200 uM linker, 1 ug/ml protease, 37° C., buffer B pH 9.0
[12] = 200 uM linker, 1 ug/ml protease, 37° C., buffer B pH 9.0
[13] = t = 15 min, 200 uM linker, 1 ug/ml protease, 37° C., buffer C pH 7.5
[14] = t = 60 min, 200 uM linker, 1 ug/ml protease, 37° C., buffer C pH 7.5
[15] = t = 120 min, 200 uM linker, 1 ug/ml protease, 37° C., buffer C pH 7.5

T3 sequence (P14780 94-707): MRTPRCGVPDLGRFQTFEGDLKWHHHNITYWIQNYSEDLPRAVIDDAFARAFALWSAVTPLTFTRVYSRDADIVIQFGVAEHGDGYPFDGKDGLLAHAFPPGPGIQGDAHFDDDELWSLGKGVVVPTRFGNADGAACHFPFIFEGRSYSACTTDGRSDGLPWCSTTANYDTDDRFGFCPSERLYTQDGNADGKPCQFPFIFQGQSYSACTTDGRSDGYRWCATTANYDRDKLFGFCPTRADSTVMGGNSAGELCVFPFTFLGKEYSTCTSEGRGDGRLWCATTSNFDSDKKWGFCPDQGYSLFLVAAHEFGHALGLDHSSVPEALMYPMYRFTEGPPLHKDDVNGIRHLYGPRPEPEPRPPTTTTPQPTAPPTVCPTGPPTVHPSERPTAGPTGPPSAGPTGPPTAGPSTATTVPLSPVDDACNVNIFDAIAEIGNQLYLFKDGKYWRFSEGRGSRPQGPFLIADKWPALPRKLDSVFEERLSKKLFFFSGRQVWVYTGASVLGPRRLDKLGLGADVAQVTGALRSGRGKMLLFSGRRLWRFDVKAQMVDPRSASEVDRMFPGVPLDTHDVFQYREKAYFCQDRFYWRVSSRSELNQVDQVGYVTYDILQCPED
Sequence of Kallikrein-3 (P07288 25-261, species assumed): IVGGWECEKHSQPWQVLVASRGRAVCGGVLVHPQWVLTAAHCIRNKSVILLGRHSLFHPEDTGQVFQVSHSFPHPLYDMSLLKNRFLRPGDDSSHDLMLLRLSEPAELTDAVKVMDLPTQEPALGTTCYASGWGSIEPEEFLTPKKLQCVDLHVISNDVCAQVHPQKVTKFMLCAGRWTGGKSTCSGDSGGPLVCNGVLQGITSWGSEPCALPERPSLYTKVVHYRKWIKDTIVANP

% cleavage uPA t = 15 min [1, 7]: 0%
% cleavage uPA t = 60 min [1, 8]: 0%
% cleavage uPA t = 120 min [1, 9]: 0%
Kallikrein-3 t = 1 h % cleavage [2]: 20%
Kallikrein-3 t = 3 h % cleavage [2]: 51%
Kallikrein-3 t = 6 h % cleavage [2]: 79%
Kallikrein-3 t = 8 h % cleavage [2]: 91%
% cleavage Matriptase t = 15 min [3, 10]: 1%
% cleavage Matriptase t = 60 min [3, 11]: 3%
% cleavage Matriptase t = 120 min [3, 12]: 5%
% cleavage MMP-2 t = 15 min [4, 13]: 1%
% cleavage MMP-2 t = 60 min [4, 14]: 4%
% cleavage MMP-2 t = 120 min [4, 15]: 6%
Substance: RRLHYSL ([2Abz]RRLHYSL[Tyr(3-NO2)]-NH2) [LNK073]

Kallikrein-3 t = 1 h % cleavage [2]: 31%
Kallikrein-3 t = 3 h % cleavage [2]: 70%
Kallikrein-3 t = 6 h % cleavage [2]: 94%
Kallikrein-3 t = 8 h % cleavage [2]: 100%
% cleavage Matriptase t = 15 min [3, 10]: 0%
% cleavage Matriptase t = 60 min [3, 11]: 0%
% cleavage Matriptase t = 120 min [3, 12]: 0%
% cleavage MMP-2 t = 15 min [4, 13]: 2%
% cleavage MMP-2 t = 60 min [4, 14]: 9%
% cleavage MMP-2 t = 120 min [4, 15]: 18%
Substance: SQLYSSPG ([2Abz]SQLYSSPG[Tyr(3-NO2)]-NH2) [LNK068]

Kallikrein-3 t = 1 h % cleavage [2]: 8%
Kallikrein-3 t = 3 h % cleavage [2]: 22%
Kallikrein-3 t = 6 h % cleavage [2]: 41%
Kallikrein-3 t = 8 h % cleavage [2]: 51%
% cleavage Matriptase t = 15 min [3, 10]: 0%
% cleavage Matriptase t = 60 min [3, 11]: 0%
% cleavage Matriptase t = 120 min [3, 12]: 0%
% cleavage MMP-2 t = 15 min [4, 13]: 1%
% cleavage MMP-2 t = 60 min [4, 14]: 5%
% cleavage MMP-2 t = 120 min [4, 15]: 10%
Substance: SQYQSSPG ([2Abz]SQYQSSPG[Tyr(3-NO2)]-NH2) [LNK067]

Kallikrein-3 t = 1 h % cleavage [2]: 14%
Kallikrein-3 t = 3 h % cleavage [2]: 40%
Kallikrein-3 t = 6 h % cleavage [2]: 67%
Kallikrein-3 t = 8 h % cleavage [2]: 78%
% cleavage Matriptase t = 15 min [3, 10]: 0%
% cleavage Matriptase t = 60 min [3, 11]: 0%
% cleavage Matriptase t = 120 min [3, 12]: 0%
% cleavage MMP-2 t = 15 min [4, 13]: 1%
% cleavage MMP-2 t = 60 min [4, 14]: 5%
% cleavage MMP-2 t = 120 min [4, 15]: 9%
Substance: SSLQSSPG ([2Abz]SSLQSSPG[Tyr(3-NO2)]-NH2) [LNK066]

Kallikrein-3 t = 1 h % cleavage [2]: 32%
Kallikrein-3 t = 3 h % cleavage [2]: 68%
Kallikrein-3 t = 6 h % cleavage [2]: 93%
Kallikrein-3 t = 8 h % cleavage [2]: 100%
% cleavage Matriptase t = 15 min [3, 10]: 0%
% cleavage Matriptase t = 60 min [3, 11]: 0%
% cleavage Matriptase t = 120 min [3, 12]: 0%
% cleavage MMP-2 t = 15 min [4, 13]: 3%
% cleavage MMP-2 t = 60 min [4, 14]: 12%
% cleavage MMP-2 t = 120 min [4, 15]: 21%
Substance: SSLYSSPG ([2Abz]SSLYSSPG[Tyr(3-NO2)]-NH2) [LNK065]

% cleavage uPA t = 60 min ([1]; pH 6.5, t = 60 min (Table 7)): 0%
% cleavage uPA t = 120 min ([1]; pH 6.5, t = 120 min (Table 7)): 0%
% cleavage uPA t = 60 min ([1]; pH 7.5, t = 60 min (Table 7)): 10%
% cleavage uPA t = 120 min ([1]; pH 7.5, t = 120 min (Table 7)): 19%
% cleavage uPA t = 15 min [1, 7]: 5%
% cleavage uPA t = 60 min [1, 8]: 16%
% cleavage uPA t = 120 min [1, 9]: 27%
% cleavage MMP-9 t = 15 min ([5]; t = 15 min (Table 9)): 60%
% cleavage MMP-9 t = 60 min ([5]; t = 60 min (Table 9)): 98%
% cleavage MMP-9 t = 120 min ([5]; t = 120 min (Table 9)): 100%
% cleavage Matriptase t = 15 min ([3]; pH 6.5, t = 15 min (Table 7)): 100%
% cleavage Matriptase t = 60 min ([3]; pH 6.5, t = 60 min (Table 7)): 100%
% cleavage Matriptase t = 15 min ([3]; pH 7.5, t = 15 min (Table 7)): 100%
% cleavage Matriptase t = 60 min ([3]; pH 7.5, t = 60 min (Table 7)): 100%
% cleavage Matriptase t = 15 min [3, 10]: 100%
% cleavage Matriptase t = 60 min [3, 11]: 100%
% cleavage Matriptase t = 120 min [3, 12]: 100%
% cleavage MMP-7 t = 15 min ([6]; t = 15 min (Table 9)): 22%
% cleavage MMP-7 t = 60 min ([6]; t = 60 min (Table 9)): 69%
% cleavage MMP-7 t = 120 min ([6]; t = 120 min (Table 9)): 83%
% cleavage MMP-2 t = 15 min ([4]; pH 6.5, t = 15 min (Table 7)): 26%
% cleavage MMP-2 t = 60 min ([4]; pH 6.5, t = 60 min (Table 7)): 64%
% cleavage MMP-2 t = 15 min ([4]; pH 7.5, t = 15 min (Table 7)): 24%
% cleavage MMP-2 t = 60 min ([4]; pH 7.5, t = 60 min (Table 7)): 64%
% cleavage MMP-2 t = 15 min ([4]; t = 15 min (Table 9)): 20%
% cleavage MMP-2 t = 15 min [4, 13]: 23%
% cleavage MMP-2 t = 60 min ([4]; t = 60 min (Table 9)): 64%
% cleavage MMP-2 t = 60 min [4, 14]: 66%
% cleavage MMP-2 t = 120 min ([4]; t = 120 min (Table 9)): 100%
% cleavage MMP-2 t = 120 min [4, 15]: 88%
Substance: SSRGRRGPYMLQG ([2Abz]SSRGRRGPYMLQG[Tyr(3-NO2)]-NH2) [LNK021]

From patent US20240400614A1, “CLEAVABLE PEPTIDES AND METHODS OF USE THEREOF” (Bright Peak Therapeutics AG, priority 2023, published 2024)
